B1: LINE1-full (parent)
chain: UACGUAGGUGGUUUUCCCCUGAUAGUGCUAAGGGGGCCUGGAAGUUUGGACUGGGCAGAGCUCAACACAGCGUGGCAAAGUGGCUGUGGCUAGACUGCCUCUCUGGAUUCCUCGUCACUCAGCAGGGCAUCUCUGAGAGAAAUGCC

Variants of: B1
Test: self-cleavage, relative activity (ratio to wild type); higher = more cleavage; in vitro, sequencing; the parent is a self-cleaving ribozyme

Row | Variant | self-cleavage
1 | A69C A117G | 0.11
2 | A69C A138G | 0.16
3 | A69C A142G | 0.11
4 | A69C C71A | 0.16
5 | A69C G93A | 0.01
6 | A69C U104C | 0.22
7 | A69C U112C | 0
8 | A69C U119A | 0.04
9 | A69C U130C | 0.36
10 | A69C U143A | 0.07
11 | A69C U143G | 0
12 | A69G | 0.5
13 | A69G A78U | 0.63
14 | A69G A79C | 0.17
15 | A69G A107G | 0.37
16 | A69G A117G | 0.5
17 | A69G A117U | 0.64
18 | A69G A121C | 0.51
19 | A69G A121G | 0.6
20 | A69G A121U | 0.62
21 | A69G A124G | 0.32

Row | Variant | self-cleavage
22 | A69G A129U | 0.58
23 | A69G A136G | 0.42
24 | A69G A136U | 0.45
25 | A69G A138G | 0.56
26 | A69G A140G | 0.36
27 | A69G A140U | 0.47
28 | A69G A141G | 0.44
29 | A69G A142G | 0.5
30 | A69G A142U | 0.35
31 | A69G C95A | 0
32 | A69G C95U | 0.06
33 | A69G C98U | 0.04
34 | A69G C103A | 0.43
35 | A69G C118A | 0.51
36 | A69G C118U | 0.2
37 | A69G C123G | 0.84
38 | A69G C128A | 0.14
39 | A69G C131A | 1.01
40 | A69G C133A | 0.47
41 | A69G C145U | 0.55
42 | A69G C146U | 0.51

Row | Variant | self-cleavage
43 | A69G G72A | 0.54
44 | A69G G74A | 0.49
45 | A69G G82A | 0.68
46 | A69G G86A | 0.03
47 | A69G G88C | 0.06
48 | A69G G114A | 0.99
49 | A69G G122A | 0.4
50 | A69G G125U | 0.3
51 | A69G G139U | 0.36
52 | A69G U73C | 0.59
53 | A69G U81G | 0
54 | A69G U85C | 0.51
55 | A69G U91A | 0.16
56 | A69G U96A | 0.04
57 | A69G U96C | 0.16
58 | A69G U102A | 0.93
59 | A69G U102C | 0.47
60 | A69G U104A | 0.2
61 | A69G U104C | 0.71
62 | A69G U108A | 0.07
63 | A69G U109A | 0.43

Row | Variant | self-cleavage
64 | A69G U112A | 0.74
65 | A69G U112C | 0.52
66 | A69G U112G | 1.15
67 | A69G U115A | 0.25
68 | A69G U115C | 0.88
69 | A69G U115G | 0.57
70 | A69G U130A | 0.39
71 | A69G U130C | 0.67
72 | A69G U132C | 0.71
73 | A69G U134A | 0.37
74 | A69G U134C | 0.44
75 | A69U | 0.06
76 | A69U A78G | 0.04
77 | A69U A79C | 0.12
78 | A69U A79U | 0.08
79 | A69U A94U | 0.05
80 | A69U A121G | 0.05
81 | A69U A121U | 0.05
82 | A69U A124C | 0.02
83 | A69U A136G | 0.06
84 | A69U A138U | 0.09

Source: the RNAGym collection of RNA variant scans (doi:10.7554/elife.90254)
